{"source": "paper PMC10702470", "about": "“Activation of Csm6 ribonuclease by cyclic nucleotide binding: in an emergency, twist to open” (Nucleic Acids Research, 2023)", "molecules": {"B1": {"name": "Streptococcus thermophilus Csm6’ (enzyme, UniProt A0A0A7HFE6 1-386, looked up)", "chain": "MRVLISAVGDTDPFRNFHDGSLIHIARKYRPEKVILIFSEHTAKKQGNIEKALFSIAPNYEPELIIHDPIISDNEVHIFDVMFQRFSDILQEYYTKEDEFILNLSSATPQIKSALFVINRLNGINVKAVQVSSPEHASNENIGHDNDENIDELIEVNKDNKVNFIDRTIEDNAEKFSQALLKKTARDFIEKFDYKAALDILDQLSDFPNLKSVREEIRDVVNCLSKQDVPKGLRHKKLKEEEQKILSAYLTIELQRERGNVSESFIRIKNLTEFILEDYIEKRYPGLIDEYCEDIQKYYLSLFDYSKLLKATKEFKLKRTIAPIIDMNSSRNKVAHSLSPLDSDAVKQLGIAMKTLKTLVREQYHFSQSDFNFYHDLNKILLTKLN", "notes": "Csm6’ ribonuclease of the type III-A CRISPR system of Streptococcus thermophilus; 386 residues in the monomer (CARF 1-173, 6H 174-239, HEPN 240-386); Cloned in pEV5HisTEV between NcoI and BamHI; Crystallised with cA6 (8PE3) and without (8PCW); also called StCsm6’; WT StCsm6’; source: E. coli C43 (DE3), purified (HisTrap, TEV cleavage, second IMAC, SEC)"}, "B2": {"name": "StCsm6’ variant C223A:C292A:N209C:D88C, MTSL spin-labelled (enzyme, Streptococcus thermophilus, UniProt A0A0A7HFE6 1-386, looked up)", "chain": "B1 chain with D88C, N209C, C223A, C292A", "modifications": "MTSL spin-labelled cysteine side chain R1 at 88 and 209", "notes": "Csm6’ ribonuclease of Streptococcus thermophilus, 386 residues in the monomer, with four substitutions; parent as m1; Variants were expressed and purified as described for the WT protein; also called D88C/N209C; D88R1/N209R1; source: E. coli C43 (DE3), purified as the WT protein, then spin-labelled with MTSL"}, "B3": {"name": "StCsm6’ variant C223A:C292A:N209C:R85C, MTSL spin-labelled (enzyme, Streptococcus thermophilus, UniProt A0A0A7HFE6 1-386, looked up)", "chain": "B1 chain with R85C, N209C, C223A, C292A", "modifications": "MTSL spin-labelled cysteine side chain R1 at 85 and 209", "notes": "Csm6’ ribonuclease of Streptococcus thermophilus, 386 residues in the monomer, with four substitutions; parent as m1; Variants were expressed and purified as described for the WT protein; also called R85C/N209C; R85R1/N209R1; source: E. coli C43 (DE3), purified as the WT protein, then spin-labelled with MTSL"}}, "key": {"StCsm6’ (Csm6’) [1]": {"target": "T1, StCsm6’ (Csm6’) (Streptococcus thermophilus, UniProt A0A0A7HFE6)", "T1 construct": "full length, 386 residues, CARF 1-173, 6H 174-239, HEPN 240-386; E. coli C43(DE3), pEV5HisTEV, 8-His tag cut by TEV; symmetrical homodimer", "T1 sequence (A0A0A7HFE6 1-386)": "B1 chain", "test": "X-ray crystallography, […] Å", "format": "binding", "settings": "CARF domain site at dimer; occupancy 0.50, mixed with cleaved product"}, "StCsm6’ (Csm6’) [2]": {"target": "T1, StCsm6’ (Csm6’)", "test": "fluorogenic RNase activation assay (RNaseAlert FAM)", "format": "biochemical", "settings": "activator, CARF domain; 1 µM dimer, 125 nM reporter RNA, MES pH 6.0, 30 mM NaCl, 20% glycerol, 45 °C, 30 min"}, "[3]": {"target": "the molecule itself", "test": "crystal structure; StCsm6’ co-crystallised with cA6 (1:1.5 molar ratio), 1.96 Å; homodimer"}, "[4]": {"target": "the molecule itself", "test": "pulse dipolar EPR spectroscopy (PELDOR/DEER); spin-labelled protein at 50 μM in deuterated buffer with 50% glycerol, frozen solution, 50 K, Q-band, with and without 25 μM cA6; distances between spin labels in the two monomers"}}, "note": "Substitutions are numbered along the chain they refer to. Names and notes keep the numbering of the source."}
{"molecule": "Nc1ncnc2c1ncn2[C@@H]1O[C@@H]2COP(=O)(O)O[C@H]3[C@@H](O)[C@H](n4cnc5c(N)ncnc54)O[C@@H]3COP(=O)(O)O[C@H]3[C@@H](O)[C@H](n4cnc5c(N)ncnc54)O[C@@H]3COP(=O)(O)O[C@H]3[C@@H](O)[C@H](n4cnc5c(N)ncnc54)O[C@@H]3COP(=O)(O)O[C@H]3[C@@H](O)[C@H](n4cnc5c(N)ncnc54)O[C@@H]3COP(=O)(O)O[C@H]3[C@@H](O)[C@H](n4cnc5c(N)ncnc54)O[C@@H]3COP(=O)(O)O[C@H]2[C@H]1O", "note": "[cA6, cyclic hexa-adenylate]", "values": [{"measurement": "X-ray crystallography, 1.96 Å", "setting": "StCsm6’ (Csm6’) [1]", "value": "electron density consistent with a molecule of cA6 bound to the StCsm6’ dimer"}, {"measurement": "concentration for full activation", "setting": "StCsm6’ (Csm6’) [2]", "value": "~ 100 nM"}]}
{"molecule": "B1", "values": [{"measurement": "stoichiometry N", "setting": "[3]", "value": 2}]}
{"molecule": "B2", "values": [{"measurement": "binding result", "setting": "[4]", "value": "binds"}]}
{"molecule": "B3", "values": [{"measurement": "binding result", "setting": "[4]", "value": "binds"}]}
